For one assay, the target named is 6-His-cdk8 (human, UniProt P49336 1-464). The assay can be described thus: pull-down.
Another assay concerns the target 6-His-cdk3 (human, UniProt Q00526 1-305). In words: pull-down.

6-His-cdk8, sequence (P49336 whole entry): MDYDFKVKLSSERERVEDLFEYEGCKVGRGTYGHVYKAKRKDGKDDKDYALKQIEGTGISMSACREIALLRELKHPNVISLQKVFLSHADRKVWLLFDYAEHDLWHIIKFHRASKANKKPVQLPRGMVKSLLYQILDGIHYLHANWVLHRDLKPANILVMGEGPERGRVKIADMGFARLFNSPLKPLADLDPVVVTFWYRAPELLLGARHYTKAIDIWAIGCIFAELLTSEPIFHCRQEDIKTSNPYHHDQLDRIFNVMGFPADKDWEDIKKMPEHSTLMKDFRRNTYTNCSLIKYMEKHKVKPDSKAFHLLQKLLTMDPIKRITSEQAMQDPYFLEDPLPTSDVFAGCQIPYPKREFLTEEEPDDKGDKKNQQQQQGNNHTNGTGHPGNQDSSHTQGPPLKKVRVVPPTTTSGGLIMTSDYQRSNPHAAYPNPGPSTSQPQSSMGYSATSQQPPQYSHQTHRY
6-His-cdk3, sequence (Q00526 whole entry): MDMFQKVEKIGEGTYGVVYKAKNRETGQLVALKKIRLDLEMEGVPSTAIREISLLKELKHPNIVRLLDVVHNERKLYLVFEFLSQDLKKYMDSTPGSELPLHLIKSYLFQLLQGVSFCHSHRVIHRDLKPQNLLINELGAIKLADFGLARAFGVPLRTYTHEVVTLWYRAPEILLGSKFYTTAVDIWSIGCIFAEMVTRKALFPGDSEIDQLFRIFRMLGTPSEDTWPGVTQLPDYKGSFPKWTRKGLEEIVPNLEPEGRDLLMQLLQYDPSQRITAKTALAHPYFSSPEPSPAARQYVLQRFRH

B1: GST-rv-cyclin (natural protein)
chain: MDIPVEFLTAQEPLSYGHIPPVYWKELLNWIDRILTHNQATPNTWEATHMVLLKLHGTLSFSNPAQLPLVAAACLQIAAKHTEAHSRLADPDYITMLGDGVYTKPSLLLTETMALFIVGGHVGAYTLAACDWLLGSLPFSQAENDLLHPYMYHYIKLSYRHRTPDYHSSPALRAAVVIAAAVKGADLLEMNMLFIMMYHLTHISTASLSLGLTHFTAALQRQINLDFAEAEQREAAERRALLEREREQQLQEARERLDDVMAVLEAEVAITITTATEGTDAEDTSEVDVINVVDPIG
Take B1: the binding result with 6-His-cdk8 and with 6-His-cdk3 was “binds” in each case.

B2: GST-cyclin C (natural protein, human, UniProt P24863 1-283, looked up)
chain: MAGNFWQSSHYLQWILDKQDLLKERQKDLKFLSEEEYWKLQIFFTNVIQALGEHLKLRQQVIATATVYFKRFYARYSLKSIDPVLMAPTCVFLASKVEEFGVVSNTRLIAAATSVLKTRFSYAFPKEFPYRMNHILECEFYLLELMDCCLIVYHPYRPLLQYVQDMGQEDMLLPLAWRIVNDTYRTDLCLLYPPFMIALACLHVACVVQQKDARQWFAELSVDMEKILEIIRVILKLYEQWKNFDERKEMATILSKMPKPKPPPNSEGEQGPNGSQNSSYSQS
Take B2: the binding result with 6-His-cdk8 and in the assay with 6-His-cdk3 was “binds” throughout.

For the origin of these results see PMC3008307 (Virology, 2010).
